The values that follow come from FireProtDB (doi:10.1111/j.1432-1033.1992.tb16932.x).

For this series the following is noted: Escherichia coli (strain K12), CD, reversible: yes, whole UniProt chain shown.
[1] abbreviates: pH 3, Thermal, glycine-HCl 10 mM.
The mark [2] stands for this setting: pH 5.5, 25 °C, Urea, Sodium acetate 10 mM, NaCl 0.1 M.

B1: Ribonuclease HI wild type, P0A7Y4 (protein)
chain: MLKQVEIFTDGSCLGNPGPGGYGAILRYRGREKTFSAGYTRTTNNRMELMAAIVALEALKEHCEVILSTDSQYVRQGITQWIHNWKKRGWKTADKKPVKNVDLWQRLDAALGQHQIKWEWVKGHAGHPENERCDELARAAAMNPTLEDTGYQVEV
With B1, under setting [1], the Tm was 49.8 °C and the “unfolding enthalpy (van 't Hoff)” value was 98.1 kcal/mol. In addition, under setting [2], the denaturant m value is 1.96 kcal/mol/M, the “denaturant midpoint (higher = more stable)” value is 5.01 M and the unfolding free energy was 9.81 kcal/mol.

Usually Tm stands for the temperature at the midpoint of the melting transition.
